One block for each molecule: values may come before it.
Legend:
human αvβ3 integrin [1] = biological target: T1, human αvβ3 integrin (human, UniProt P06756 31-1048; P05106 27-788); test: cell-based or functional assay
mouse αvβ5 integrin = mouse αvβ5 integrin (mouse, UniProt P43406 31-1044; O70309 24-798); test: cell-based or functional assay
human αvβ5 integrin = human αvβ5 integrin (human, UniProt P06756 31-1048; P18084 24-799); test: cell-based or functional assay
[2] = biological target: mouse αvβ3 integrin (mouse) (UniProt P43406); test: cell-based or functional assay
human αvβ3 integrin [3] = biological target: T1, human αvβ3 integrin; test: co-immunoprecipitation from MDA-MB-231 cells, blot for β3 subunit

T1 sequence (P06756 31-1048, chain 1 of 2): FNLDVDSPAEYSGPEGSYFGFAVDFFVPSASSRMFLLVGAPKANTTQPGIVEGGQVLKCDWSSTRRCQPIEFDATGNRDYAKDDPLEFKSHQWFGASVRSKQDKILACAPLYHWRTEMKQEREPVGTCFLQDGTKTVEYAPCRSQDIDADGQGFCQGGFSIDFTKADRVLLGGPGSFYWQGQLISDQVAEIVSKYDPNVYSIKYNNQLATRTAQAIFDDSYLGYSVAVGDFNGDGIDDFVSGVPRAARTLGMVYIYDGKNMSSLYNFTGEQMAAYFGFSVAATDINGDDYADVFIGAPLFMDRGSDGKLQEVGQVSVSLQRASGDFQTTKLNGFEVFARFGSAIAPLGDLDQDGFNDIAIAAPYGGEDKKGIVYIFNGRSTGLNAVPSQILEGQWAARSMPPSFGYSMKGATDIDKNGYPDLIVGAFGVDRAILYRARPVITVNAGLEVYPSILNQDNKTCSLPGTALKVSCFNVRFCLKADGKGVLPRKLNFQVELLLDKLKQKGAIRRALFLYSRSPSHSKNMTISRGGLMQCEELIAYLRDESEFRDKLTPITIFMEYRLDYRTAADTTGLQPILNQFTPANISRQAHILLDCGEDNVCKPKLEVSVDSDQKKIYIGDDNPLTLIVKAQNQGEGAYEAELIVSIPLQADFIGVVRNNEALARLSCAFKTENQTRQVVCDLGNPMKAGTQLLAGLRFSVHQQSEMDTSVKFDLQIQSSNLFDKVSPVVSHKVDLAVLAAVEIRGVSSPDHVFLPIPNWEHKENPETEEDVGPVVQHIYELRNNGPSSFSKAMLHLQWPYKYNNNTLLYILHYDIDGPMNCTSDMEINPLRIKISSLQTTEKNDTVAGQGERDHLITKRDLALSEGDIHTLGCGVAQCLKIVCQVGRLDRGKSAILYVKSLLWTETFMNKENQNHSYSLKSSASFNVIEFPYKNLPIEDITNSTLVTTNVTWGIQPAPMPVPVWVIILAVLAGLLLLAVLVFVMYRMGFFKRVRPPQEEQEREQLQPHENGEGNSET
T1 sequence (P05106 27-788, chain 2 of 2): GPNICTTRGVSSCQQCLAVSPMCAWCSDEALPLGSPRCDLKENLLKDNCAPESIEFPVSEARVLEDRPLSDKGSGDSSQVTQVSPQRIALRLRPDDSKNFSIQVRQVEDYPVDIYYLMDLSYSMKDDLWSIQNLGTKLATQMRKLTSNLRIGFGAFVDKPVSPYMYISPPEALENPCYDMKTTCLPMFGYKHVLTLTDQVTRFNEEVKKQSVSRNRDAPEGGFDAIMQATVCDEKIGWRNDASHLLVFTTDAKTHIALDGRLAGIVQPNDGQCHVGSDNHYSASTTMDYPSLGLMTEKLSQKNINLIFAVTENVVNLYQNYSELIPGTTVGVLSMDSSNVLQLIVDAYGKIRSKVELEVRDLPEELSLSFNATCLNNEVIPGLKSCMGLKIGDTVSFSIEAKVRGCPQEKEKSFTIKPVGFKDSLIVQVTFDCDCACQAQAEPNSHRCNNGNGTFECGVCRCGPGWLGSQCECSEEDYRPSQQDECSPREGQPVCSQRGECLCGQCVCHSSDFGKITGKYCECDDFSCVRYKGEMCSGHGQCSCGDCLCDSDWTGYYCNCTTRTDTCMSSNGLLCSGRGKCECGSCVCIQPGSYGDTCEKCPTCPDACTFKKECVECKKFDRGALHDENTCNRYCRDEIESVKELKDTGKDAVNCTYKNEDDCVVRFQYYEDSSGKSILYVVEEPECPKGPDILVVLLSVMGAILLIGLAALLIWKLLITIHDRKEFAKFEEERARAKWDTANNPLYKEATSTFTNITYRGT
human αvβ5 integrin, sequence (P06756 31-1048, chain 1 of 2): as the sequence (P06756 31-1048, chain 1 of 2) above
human αvβ5 integrin, sequence (P18084 24-799, chain 2 of 2): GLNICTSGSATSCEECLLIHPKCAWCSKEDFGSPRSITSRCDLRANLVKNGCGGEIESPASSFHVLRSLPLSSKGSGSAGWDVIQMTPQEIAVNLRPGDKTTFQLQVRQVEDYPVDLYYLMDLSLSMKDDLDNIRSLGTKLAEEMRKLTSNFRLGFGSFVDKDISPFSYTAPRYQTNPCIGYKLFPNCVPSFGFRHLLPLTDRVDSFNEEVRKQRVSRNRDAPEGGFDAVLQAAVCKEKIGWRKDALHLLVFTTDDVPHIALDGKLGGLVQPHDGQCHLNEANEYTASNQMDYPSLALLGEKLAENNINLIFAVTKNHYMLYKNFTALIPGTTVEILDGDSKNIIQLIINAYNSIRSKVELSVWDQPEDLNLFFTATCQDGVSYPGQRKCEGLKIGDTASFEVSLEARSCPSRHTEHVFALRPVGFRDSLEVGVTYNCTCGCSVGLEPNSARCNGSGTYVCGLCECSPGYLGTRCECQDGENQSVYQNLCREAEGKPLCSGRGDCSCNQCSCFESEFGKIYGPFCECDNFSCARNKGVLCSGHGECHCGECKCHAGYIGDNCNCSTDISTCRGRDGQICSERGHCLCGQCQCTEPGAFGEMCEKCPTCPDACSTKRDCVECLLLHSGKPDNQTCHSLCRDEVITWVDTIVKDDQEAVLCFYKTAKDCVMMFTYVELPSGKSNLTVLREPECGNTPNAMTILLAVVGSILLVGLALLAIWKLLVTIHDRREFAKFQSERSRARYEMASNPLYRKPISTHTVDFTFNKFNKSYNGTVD
mouse αvβ5 integrin, sequence (P43406 31-1044, chain 1 of 2): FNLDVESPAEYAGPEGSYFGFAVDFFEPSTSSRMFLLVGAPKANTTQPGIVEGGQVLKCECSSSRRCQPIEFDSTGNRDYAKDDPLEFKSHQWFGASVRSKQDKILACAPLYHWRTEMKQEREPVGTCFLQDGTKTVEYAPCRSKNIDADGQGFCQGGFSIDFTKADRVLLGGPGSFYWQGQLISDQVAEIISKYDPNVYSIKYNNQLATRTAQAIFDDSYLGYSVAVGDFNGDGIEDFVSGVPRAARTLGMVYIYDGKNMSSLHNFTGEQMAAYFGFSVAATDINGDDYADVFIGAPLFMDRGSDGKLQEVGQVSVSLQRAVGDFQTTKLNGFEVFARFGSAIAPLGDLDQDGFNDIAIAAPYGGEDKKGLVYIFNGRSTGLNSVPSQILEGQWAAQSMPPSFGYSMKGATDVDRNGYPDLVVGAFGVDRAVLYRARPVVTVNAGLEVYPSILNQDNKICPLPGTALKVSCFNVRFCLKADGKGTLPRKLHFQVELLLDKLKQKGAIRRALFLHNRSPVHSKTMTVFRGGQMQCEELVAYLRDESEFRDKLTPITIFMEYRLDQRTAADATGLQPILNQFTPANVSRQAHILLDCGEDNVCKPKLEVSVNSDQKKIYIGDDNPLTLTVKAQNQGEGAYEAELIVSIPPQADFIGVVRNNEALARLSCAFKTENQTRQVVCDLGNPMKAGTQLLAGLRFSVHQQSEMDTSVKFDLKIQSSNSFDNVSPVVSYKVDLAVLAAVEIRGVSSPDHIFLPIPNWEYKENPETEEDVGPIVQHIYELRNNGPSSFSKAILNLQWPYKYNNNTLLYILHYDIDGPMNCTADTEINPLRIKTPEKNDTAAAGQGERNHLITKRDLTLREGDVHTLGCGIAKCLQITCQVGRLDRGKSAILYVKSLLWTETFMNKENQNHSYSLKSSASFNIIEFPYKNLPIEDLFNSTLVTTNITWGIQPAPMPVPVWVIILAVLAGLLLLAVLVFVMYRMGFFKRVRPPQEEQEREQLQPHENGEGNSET
mouse αvβ5 integrin, sequence (O70309 24-798, chain 2 of 2): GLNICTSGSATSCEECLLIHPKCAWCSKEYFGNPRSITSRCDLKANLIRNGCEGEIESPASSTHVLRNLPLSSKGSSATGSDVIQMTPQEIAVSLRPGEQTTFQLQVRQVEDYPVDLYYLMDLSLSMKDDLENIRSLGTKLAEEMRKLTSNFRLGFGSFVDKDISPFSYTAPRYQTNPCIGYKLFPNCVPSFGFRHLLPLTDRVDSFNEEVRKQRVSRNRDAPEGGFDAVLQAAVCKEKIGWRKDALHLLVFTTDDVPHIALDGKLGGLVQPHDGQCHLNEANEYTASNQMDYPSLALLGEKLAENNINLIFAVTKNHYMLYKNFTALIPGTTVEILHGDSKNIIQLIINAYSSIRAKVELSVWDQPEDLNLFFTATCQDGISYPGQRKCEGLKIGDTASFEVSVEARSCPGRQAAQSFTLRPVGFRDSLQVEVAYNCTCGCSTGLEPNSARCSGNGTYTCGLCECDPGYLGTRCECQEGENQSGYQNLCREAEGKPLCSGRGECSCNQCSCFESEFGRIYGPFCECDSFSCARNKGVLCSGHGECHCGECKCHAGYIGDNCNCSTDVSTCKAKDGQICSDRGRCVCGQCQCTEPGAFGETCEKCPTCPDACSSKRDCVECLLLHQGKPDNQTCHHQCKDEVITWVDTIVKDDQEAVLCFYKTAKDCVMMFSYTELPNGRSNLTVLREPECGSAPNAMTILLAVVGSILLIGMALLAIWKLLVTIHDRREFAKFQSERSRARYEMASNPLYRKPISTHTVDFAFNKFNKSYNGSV

Molecule: GST-mS1ED (recombinant mouse Sdc1 ectodomain, amino acids 18-251, expressed as a fusion protein with GST) (from UniProt P18828 18-251)
- HMEC spreading on VN (human αvβ3 integrin [1]): 5 µM
- IC50, HAEC spreading on VN (human αvβ3 integrin [1]): 1000 nM
- IC50, HMEC-1 spreading on VN (human αvβ3 integrin [1]): 3000 to 10000 nM
- concentration that blocks endothelial cell attachment to VN altogether (human αvβ3 integrin [1]): 10 µM
- percent reduction of HMEC spreading on VN at 1 µM mS1ED (human αvβ3 integrin [1]): > 80%
- percent reduction of HMEC spreading on VN at 3 µM mS1ED (human αvβ3 integrin [1]): > 90%
- spreading of mouse aortic endothelial cells on VN (mouse αvβ5 integrin): 1 µM
- HMEC spreading on VN (human αvβ5 integrin): 5 µM
- IC50, HAEC spreading on VN (human αvβ5 integrin): 1000 nM
- IC50, HMEC-1 spreading on VN (human αvβ5 integrin): 3000 to 10000 nM
- concentration that blocks endothelial cell attachment to VN altogether (human αvβ5 integrin): 10 µM
- percent reduction of HMEC spreading on VN at 1 µM mS1ED (human αvβ5 integrin): > 80%
- percent reduction of HMEC spreading on VN at 3 µM mS1ED (human αvβ5 integrin): > 90%
- spreading of mouse aortic endothelial cells on VN [2]: 1 µM

Molecule: FTSVLPAGEKPEEGEPVLHVEAEPGFTARD [SSTN88-117 (30-mer)]
- fold less active, HMEC-1 attachment and spreading on VN (human αvβ3 integrin [1]): 3 fold
- fold less active, HMEC-1 attachment and spreading on VN (human αvβ5 integrin): 3 fold

Molecule: ASTSTLPAGEGPKEGEAVVLPEVEPGLTAREQEA [hSSTN 88-121 (amino acids 88-121 of the human Sdc1 sequence)]
- IC50, MDA-MB-231 attachment and spreading on VN (human αvβ3 integrin [1]): 100 to 300 nM

Now from value to molecule:

- binding result (human αvβ3 integrin [3]): no binding
B1: mouse syndecan-1 mutant bearing deletion of amino acids 67-121 (receptor, UniProt P18828 23-311, looked up)
chain: QIVAVNVPPEDQDGSGDDSDNFSGSGTGALPDTLSRQTPSTWKDVTTRPRETVQLPITQRASTVRVTTAQAAVTSHPHGGMQPGLHETSAPTAPGQPDHQPPRVEGGGTSVIKEVVEDGTANQLPAGEGSGEQDFTFETSGENTAVAAVEPGLRNQPPVDEGATGASQSLLDRKEVLGGVIAGGLVGLIFAVCLVAFMLYRMKKKDEGSYSLEEPKQANGGAYQKPTKQEEFYA
notes: whole, on cells; also called mouse mutant lacking the active site

- IC50, HMEC-1 spreading on VN (human αvβ3 integrin [1]): ~100 nM
- IC50, MDA-MB-231 spreading on VN (human αvβ3 integrin [1]): ~100 nM
- fold lower concentration than mS1ED for equal inhibition, endothelial cells on VN (human αvβ3 integrin [1]): 10 fold
- IC50, B82L fibroblast spreading on VN (mouse αvβ5 integrin): ~100 nM
- IC50, HMEC-1 spreading on VN (human αvβ5 integrin): ~100 nM
- fold lower concentration than mS1ED for equal inhibition, endothelial cells on VN (human αvβ5 integrin): 10 fold
Molecule: SNTETAFTSVLPAGEKPEEGEPVLHVEAEPGFTARDKEKEVTTRPRETV [synstatin82-130 (SSTN82-130, 49-mer, amino acids 82-130 of mouse Sdc-1)]

- IC50, MDA-MB-231 attachment and spreading on VN (human αvβ3 integrin [1]): 100 to 300 nM
Molecule: STSTLPAGEGPKEGEAVVLPEVEPGLTAREQE [hSSTN 89-120 (amino acids 89-120 of the human Sdc1 sequence)]

Source: patent US20080020979A1 (WISCONSIN ALUMNI RESEARCH FOUNDATION, published 2008)
